Measurements reported in publication PMC12663309, “NEK7 couples SDHB to orchestrate respiratory chain electron transport homeostasis that impedes liver fibrosis” (Nature Communications, 2025).

Molecular target: T1, human NEK7 recombinant protein (HY-P75935, MCE) (human, UniProt Q8TDX7 1-302, RED-NHS dye label (in the MST only))
T1 construct: NEK7, human, commercially sourced recombinant protein; the vendor's catalogue entry would tell them; source: bought: MCE (HY-P75935), recombinant, purity 94%
Test: SPR; Biacore T200; NEK7 or NEK7-mut immobilised by amine coupling; SDHB flowed at different concentrations; 1:1 Langmuir binding model
Settings: both partners purified

T1 sequence (Q8TDX7 whole entry, one chain of several): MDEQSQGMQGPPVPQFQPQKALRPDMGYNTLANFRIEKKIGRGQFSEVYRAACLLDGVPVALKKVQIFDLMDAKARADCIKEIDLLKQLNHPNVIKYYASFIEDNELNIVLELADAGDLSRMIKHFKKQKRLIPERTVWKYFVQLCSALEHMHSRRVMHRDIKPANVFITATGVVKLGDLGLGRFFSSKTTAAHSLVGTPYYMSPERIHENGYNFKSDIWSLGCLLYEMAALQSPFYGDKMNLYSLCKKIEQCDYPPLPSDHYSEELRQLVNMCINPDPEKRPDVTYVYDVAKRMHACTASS

Kd: 349 nM
B1: human SDHB recombinant protein (Ag29868, Proteintech) (natural protein, UniProt P21912 29-280, looked up)
chain: AQTAAATAPRIKKFAIYRWDPDKAGDKPHMQTYEVDLNKCGPMVLDALIKIKNEVDSTLTFRRSCREGICGSCAMNINGGNTLACTRRIDTNLNKVSKIYPLPHMYVIKDLVPDLSNFYAQYKSIEPYLKKKDESQEGKQQYLQSIEEREKLDGLYECILCACCSTSCPSYWWNGDKYLGPAVLMQAYRWMIDSRDDFTEERLAKLQDPFSLYRCHTIMNCTRTCPKGLNPGKAIAEIKKMMATYKEKKASV
notes: SDHB, human, commercially sourced recombinant protein; the vendor's catalogue entry would tell them (such antigen proteins may be tagged fragments); source: bought: Proteintech (Ag29868), recombinant, purity 80%
